test system: Escherichia coli TOP10; test: shrunken log2 fold change of peptide-encoding DNA abundance (4.5 h post-induction vs induction); higher = less antimicrobial activity (less host growth inhibition); details: time post-induction: 4.5 h; library: site-saturation at positions 5, 18, 19, 20
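Further: peptides expressed intracellularly from a pBAD plasmid library in pooled LB shake-flask culture, induced with 0.3% L-arabinose, DNA abundance read by NGS, three biological replicates, DESeq2 with apeglm shrinkage.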

| Sequence | shrunken log2 fold change |
| --- | --- |
| RRIRYRPPRLPRPRPRPKIGPRP | -0.177 |
| RRIRHRPPRLPRPRPRPANSPRP | -0.271 |
| RRIRARPPRLPRPRPRPPHPPRP | 0.527 |
| RRIRRRPPRLPRPRPRPVVQPRP | 0.534 |
| RRIRARPPRLPRPRPRPPWGPRP | 0.48 |
| RRIRCRPPRLPRPRPRPFAMPRP | -0.495 |
| RRIRDRPPRLPRPRPRPKIWPRP | 0.127 |
| RRIRYRPPRLPRPRPRPVIYPRP | -0.0529 |
| RRIRTRPPRLPRPRPRPRLWPRP | 0.154 |
| RRIRKRPPRLPRPRPRPFKIPRP | 0.00571 |
| RRIRTRPPRLPRPRPRPPYPPRP | 0.0259 |
| RRIRGRPPRLPRPRPRPIWCPRP | 0.0438 |
| RRIRSRPPRLPRPRPRPRMEPRP | 0.0338 |
| RRIRRRPPRLPRPRPRPPMMPRP | 0.21 |
| RRIRQRPPRLPRPRPRPIKHPRP | -0.12 |
| RRIRPRPPRLPRPRPRPQLIPRP | -0.108 |
| RRIRTRPPRLPRPRPRPKSRPRP | -0.0444 |
| RRIRSRPPRLPRPRPRPEWMPRP | 0.0203 |
| RRIRFRPPRLPRPRPRPLRRPRP | 0.773 |
| RRIRARPPRLPRPRPRPNWGPRP | -0.267 |
| RRIRVRPPRLPRPRPRPPTDPRP | 0.116 |
| RRIRARPPRLPRPRPRPQHWPRP | 0.0917 |
| RRIRCRPPRLPRPRPRPLATPRP | 0.146 |
| RRIRRRPPRLPRPRPRPQFRPRP | -0.165 |
| RRIRHRPPRLPRPRPRPQRTPRP | -0.145 |

| Sequence | shrunken log2 fold change |
| --- | --- |
| RRIRYRPPRLPRPRPRPAIVPRP | -0.0768 |
| RRIRRRPPRLPRPRPRPGKPPRP | 0.293 |
| RRIRKRPPRLPRPRPRPLHPPRP | 0.158 |
| RRIRHRPPRLPRPRPRPTWVPRP | 0.078 |
| RRIRMRPPRLPRPRPRPNISPRP | -0.29 |
| RRIRQRPPRLPRPRPRPFRDPRP | -0.117 |
| RRIRKRPPRLPRPRPRPRGPPRP | 1.23 |
| RRIRQRPPRLPRPRPRPIINPRP | -0.235 |
| RRIRTRPPRLPRPRPRPQSGPRP | 0.00577 |
| RRIRVRPPRLPRPRPRPIKCPRP | -0.633 |
| RRIRVRPPRLPRPRPRPQNKPRP | -0.497 |
| RRIRIRPPRLPRPRPRPCEKPRP | -0.626 |
| RRIRARPPRLPRPRPRPPARPRP | 0.874 |
| RRIRQRPPRLPRPRPRPPFAPRP | 0.742 |
| RRIRTRPPRLPRPRPRPVKYPRP | 0.0856 |
| RRIRCRPPRLPRPRPRPKGMPRP | -0.148 |
| RRIRCRPPRLPRPRPRPPNYPRP | -0.376 |
| RRIRSRPPRLPRPRPRPKMTPRP | 0.0901 |
| RRIRFRPPRLPRPRPRPEGCPRP | 0.013 |
| RRIRSRPPRLPRPRPRPNDVPRP | -0.134 |
| RRIRERPPRLPRPRPRPHVQPRP | -0.434 |
| RRIRNRPPRLPRPRPRPYQKPRP | -0.0633 |
| RRIRLRPPRLPRPRPRPHFHPRP | -0.0565 |
| RRIRVRPPRLPRPRPRPNYAPRP | -0.192 |
| RRIRARPPRLPRPRPRPVQGPRP | 0.47 |

| Sequence | shrunken log2 fold change |
| --- | --- |
| RRIRERPPRLPRPRPRPEAFPRP | 0.0868 |
| RRIRFRPPRLPRPRPRPAWKPRP | -0.284 |
| RRIRTRPPRLPRPRPRPRIEPRP | 0.453 |
| RRIRKRPPRLPRPRPRPEEHPRP | 2.61 |
| RRIRERPPRLPRPRPRPMTAPRP | -0.0417 |
| RRIRWRPPRLPRPRPRPLMNPRP | -0.0906 |
| RRIRCRPPRLPRPRPRPRDWPRP | 0.591 |
| RRIRDRPPRLPRPRPRPARMPRP | 0.584 |
| RRIRVRPPRLPRPRPRPVGDPRP | 0.294 |
| RRIRWRPPRLPRPRPRPTWSPRP | 0.541 |
| RRIRKRPPRLPRPRPRPELQPRP | 0.307 |
| RRIRDRPPRLPRPRPRPINMPRP | 0.00272 |
| RRIRVRPPRLPRPRPRPARWPRP | 0.586 |
| RRIRCRPPRLPRPRPRPSTLPRP | -0.686 |
| RRIRMRPPRLPRPRPRPQDYPRP | -0.0945 |
| RRIRSRPPRLPRPRPRPAIFPRP | 0.0447 |
| RRIRSRPPRLPRPRPRPGQAPRP | 0.0166 |
| RRIRMRPPRLPRPRPRPDCFPRP | 0.0619 |
| RRIRQRPPRLPRPRPRPHMDPRP | -1.07 |
| RRIRIRPPRLPRPRPRPQQAPRP | 0.0151 |
| RRIRWRPPRLPRPRPRPSQCPRP | 0.0963 |
| RRIRKRPPRLPRPRPRPPCDPRP | 0.415 |
| RRIRCRPPRLPRPRPRPGTIPRP | 0.00164 |
| RRIRDRPPRLPRPRPRPGLGPRP | 0.208 |
| RRIRYRPPRLPRPRPRPQANPRP | -0.694 |

| Sequence | shrunken log2 fold change |
| --- | --- |
| RRIRHRPPRLPRPRPRPWYGPRP | -0.779 |
| RRIRARPPRLPRPRPRPKEAPRP | 0.516 |
| RRIRFRPPRLPRPRPRPHHKPRP | -0.462 |
| RRIRPRPPRLPRPRPRPEYEPRP | -0.0375 |
| RRIRYRPPRLPRPRPRPTHIPRP | -1.04 |
| RRIRVRPPRLPRPRPRPCWGPRP | -0.0908 |
| RRIRYRPPRLPRPRPRPWYDPRP | -0.109 |
| RRIRCRPPRLPRPRPRPHQTPRP | -0.0284 |
| RRIRHRPPRLPRPRPRPTFQPRP | -0.067 |
| RRIRSRPPRLPRPRPRPYMMPRP | -0.36 |
| RRIRFRPPRLPRPRPRPWIVPRP | -0.242 |
| RRIRLRPPRLPRPRPRPWCFPRP | -0.158 |
| RRIRWRPPRLPRPRPRPSCMPRP | 0.11 |
| RRIRKRPPRLPRPRPRPHMWPRP | -0.174 |
| RRIRFRPPRLPRPRPRPALMPRP | -0.0289 |
| RRIRSRPPRLPRPRPRPEYMPRP | -0.609 |
| RRIRTRPPRLPRPRPRPVEGPRP | -0.194 |
| RRIRNRPPRLPRPRPRPWHHPRP | -0.209 |
| RRIRLRPPRLPRPRPRPHPSPRP | -0.0856 |
| RRIRPRPPRLPRPRPRPTNKPRP | -0.208 |
| RRIRDRPPRLPRPRPRPYSDPRP | 0.0396 |
| RRIRVRPPRLPRPRPRPLYSPRP | -0.343 |
| RRIRHRPPRLPRPRPRPGNDPRP | -0.583 |
| RRIRFRPPRLPRPRPRPPHVPRP | 0.203 |
| RRIRIRPPRLPRPRPRPNVSPRP | -0.052 |

| Sequence | shrunken log2 fold change |
| --- | --- |
| RRIRWRPPRLPRPRPRPIDFPRP | -3.4e-05 |
| RRIRIRPPRLPRPRPRPLWSPRP | -0.245 |
| RRIRRRPPRLPRPRPRPDVCPRP | -0.000628 |
| RRIRNRPPRLPRPRPRPINEPRP | -0.056 |
| RRIRTRPPRLPRPRPRPHVFPRP | -0.119 |
| RRIRWRPPRLPRPRPRPARIPRP | 0.176 |
| RRIRMRPPRLPRPRPRPSNRPRP | -0.0397 |
| RRIRKRPPRLPRPRPRPCEPPRP | 0.553 |
| RRIRCRPPRLPRPRPRPYIGPRP | -1.24 |
| RRIRSRPPRLPRPRPRPEFDPRP | 0.202 |
| RRIRTRPPRLPRPRPRPDTYPRP | -0.202 |
| RRIRLRPPRLPRPRPRPIKKPRP | 0.0365 |
| RRIRMRPPRLPRPRPRPFIAPRP | -0.251 |
| RRIRKRPPRLPRPRPRPEWPPRP | 0.273 |
| RRIRGRPPRLPRPRPRPAHYPRP | 0.447 |
| RRIRHRPPRLPRPRPRPYADPRP | -0.00783 |
| RRIRVRPPRLPRPRPRPQMCPRP | 0.00424 |
| RRIRERPPRLPRPRPRPWCCPRP | -0.244 |
| RRIRVRPPRLPRPRPRPKDDPRP | 0.0252 |
| RRIRERPPRLPRPRPRPHSPPRP | -0.372 |
| RRIRKRPPRLPRPRPRPGCLPRP | 0.646 |
| RRIRHRPPRLPRPRPRPHHCPRP | -0.152 |
| RRIRQRPPRLPRPRPRPNIAPRP | -0.0856 |
| RRIRCRPPRLPRPRPRPKFRPRP | -0.375 |
| RRIRVRPPRLPRPRPRPINNPRP | -0.684 |

| Sequence | shrunken log2 fold change |
| --- | --- |
| RRIRMRPPRLPRPRPRPYSTPRP | -0.137 |
| RRIRARPPRLPRPRPRPVAMPRP | 0.383 |
| RRIRKRPPRLPRPRPRPHVRPRP | -0.0167 |
| RRIRNRPPRLPRPRPRPPHGPRP | -0.0913 |
| RRIRVRPPRLPRPRPRPDWWPRP | -0.0161 |
| RRIRRRPPRLPRPRPRPSFRPRP | -0.0185 |
| RRIRFRPPRLPRPRPRPLPVPRP | 0.142 |
| RRIRSRPPRLPRPRPRPSGAPRP | 0.12 |
| RRIRCRPPRLPRPRPRPINFPRP | -0.235 |
| RRIRWRPPRLPRPRPRPIIMPRP | -0.241 |
| RRIRYRPPRLPRPRPRPDQTPRP | 0.00902 |
| RRIRGRPPRLPRPRPRPADNPRP | -0.0713 |
| RRIRARPPRLPRPRPRPNQYPRP | -0.801 |
| RRIRWRPPRLPRPRPRPKYGPRP | 0.085 |
| RRIRFRPPRLPRPRPRPHIKPRP | -0.793 |
| RRIRERPPRLPRPRPRPIMMPRP | -0.689 |
| RRIRERPPRLPRPRPRPEVCPRP | -0.0484 |
| RRIRTRPPRLPRPRPRPNRTPRP | -0.002 |
| RRIRWRPPRLPRPRPRPHVMPRP | -0.254 |
| RRIRDRPPRLPRPRPRPYCDPRP | -0.181 |
| RRIRTRPPRLPRPRPRPPMMPRP | -0.121 |
| RRIRTRPPRLPRPRPRPQMWPRP | -0.0505 |
| RRIRIRPPRLPRPRPRPMFHPRP | -0.517 |
| RRIRDRPPRLPRPRPRPGQRPRP | 0.0563 |
| RRIRIRPPRLPRPRPRPSSDPRP | 0.0499 |
